Results on 35 variants are retold here after the Human Domainome abundance scans (Beltran et al. 2025).

± gives the uncertainty stated by the source.

To fix the notation:
B1: Protein S100-G, residues 1 to 79; numbered along this chain, P02633 (parent)
chain: MSAKKSPEELKGIFEKYAAKEGDPNQLSKEELKLLLQTEFPSLLKGPSTLDELFEELDKNGDGEVSFEEFQVLVKKISQ

In the data set the parent is B1. The data set is described as follows: abundance fitness (aPCA) (normalised: wild type 0, dead -1); higher = more abundant; growth selection in yeast, the domain comes from the species named. The conditions noted are these: Bos taurus.
As for MSAKKSPEELKGIFEKYAAKEGFPNQLSKEELKLLLQTEFPSLLKGPSTLDELFEELDKNGDGEVSFEEFQVLVKKISQ, the abundance fitness was -0.079 ± 0.081.
With MSAKKSPEELKGIFEKYAAKEGVPNQLSKEELKLLLQTEFPSLLKGPSTLDELFEELDKNGDGEVSFEEFQVLVKKISQ, the abundance fitness was -0.065 ± 0.068.
The value for MSAKKSPEELKGIFEKYAAKEGKPNQLSKEELKLLLQTEFPSLLKGPSTLDELFEELDKNGDGEVSFEEFQVLVKKISQ was -0.157 ± 0.082; that for MSAKKSPEELKGIFEKYAAKEGQPNQLSKEELKLLLQTEFPSLLKGPSTLDELFEELDKNGDGEVSFEEFQVLVKKISQ was -0.046 ± 0.078; that for MSAKKSPEELKGIFEKYAAKEGGPNQLSKEELKLLLQTEFPSLLKGPSTLDELFEELDKNGDGEVSFEEFQVLVKKISQ was -0.091 ± 0.078.
The value for MSAKKSPEELKGIFEKYAAKEGCPNQLSKEELKLLLQTEFPSLLKGPSTLDELFEELDKNGDGEVSFEEFQVLVKKISQ was -0.064 ± 0.089; that for MSAKKSPEELKGIFEKYAAKEGSPNQLSKEELKLLLQTEFPSLLKGPSTLDELFEELDKNGDGEVSFEEFQVLVKKISQ was -0.036 ± 0.067.
With MSAKKSPEELKGIFEKYAAKEGLPNQLSKEELKLLLQTEFPSLLKGPSTLDELFEELDKNGDGEVSFEEFQVLVKKISQ, the abundance fitness was -0.034 ± 0.062.
Turning to MSAKKSPEELKGIFEKYAAKEGYPNQLSKEELKLLLQTEFPSLLKGPSTLDELFEELDKNGDGEVSFEEFQVLVKKISQ, the abundance fitness was -0.081 ± 0.074.
Next, MSAKKSPEELKGIFEKYAAKEGMPNQLSKEELKLLLQTEFPSLLKGPSTLDELFEELDKNGDGEVSFEEFQVLVKKISQ: -0.104 ± 0.076.
Turning to MSAKKSPEELKGIFEKYAAKEGHPNQLSKEELKLLLQTEFPSLLKGPSTLDELFEELDKNGDGEVSFEEFQVLVKKISQ, the abundance fitness was -0.074 ± 0.085.
As to MSAKKSPEELKGIFEKYAAKEGPPNQLSKEELKLLLQTEFPSLLKGPSTLDELFEELDKNGDGEVSFEEFQVLVKKISQ, the abundance fitness was -0.139 ± 0.083.
The value for MSAKKSPEELKGIFEKYAAKEGRPNQLSKEELKLLLQTEFPSLLKGPSTLDELFEELDKNGDGEVSFEEFQVLVKKISQ was -0.043 ± 0.069; that for MSAKKSPEELKGIFEKYAAKEGAPNQLSKEELKLLLQTEFPSLLKGPSTLDELFEELDKNGDGEVSFEEFQVLVKKISQ was -0.009 ± 0.069.
Next, MSAKKSPEELKGIFEKYAAKEGTPNQLSKEELKLLLQTEFPSLLKGPSTLDELFEELDKNGDGEVSFEEFQVLVKKISQ: 0.005 ± 0.073; MSAKKSPEELKGIFEKYAAKEGNPNQLSKEELKLLLQTEFPSLLKGPSTLDELFEELDKNGDGEVSFEEFQVLVKKISQ: -0.013 ± 0.088.
With MSAKKSPEELKGIFEKYAAKEGWPNQLSKEELKLLLQTEFPSLLKGPSTLDELFEELDKNGDGEVSFEEFQVLVKKISQ, the abundance fitness is -0.254 ± 0.083.
Consider MSAKKSPEELKGIFEKYAAKECDPNQLSKEELKLLLQTEFPSLLKGPSTLDELFEELDKNGDGEVSFEEFQVLVKKISQ, for which the abundance fitness is -0.264 ± 0.1.
Take MSAKKSPEELKGIFEKYAAKEYDPNQLSKEELKLLLQTEFPSLLKGPSTLDELFEELDKNGDGEVSFEEFQVLVKKISQ: the abundance fitness was -0.204 ± 0.086.
As for MSAKKSPEELKGIFEKYAAKEDDPNQLSKEELKLLLQTEFPSLLKGPSTLDELFEELDKNGDGEVSFEEFQVLVKKISQ, the abundance fitness is -0.167 ± 0.095.
Take MSAKKSPEELKGIFEKYAAKELDPNQLSKEELKLLLQTEFPSLLKGPSTLDELFEELDKNGDGEVSFEEFQVLVKKISQ: the abundance fitness is -0.319 ± 0.065.
On to MSAKKSPEELKGIFEKYAAKETDPNQLSKEELKLLLQTEFPSLLKGPSTLDELFEELDKNGDGEVSFEEFQVLVKKISQ, for which the abundance fitness was -0.22 ± 0.072.
For the variant MSAKKSPEELKGIFEKYAAKEWDPNQLSKEELKLLLQTEFPSLLKGPSTLDELFEELDKNGDGEVSFEEFQVLVKKISQ, the abundance fitness was -0.547 ± 0.087.
For MSAKKSPEELKGIFEKYAAKESDPNQLSKEELKLLLQTEFPSLLKGPSTLDELFEELDKNGDGEVSFEEFQVLVKKISQ, the abundance fitness was -0.114 ± 0.064.
Take MSAKKSPEELKGIFEKYAAKEQDPNQLSKEELKLLLQTEFPSLLKGPSTLDELFEELDKNGDGEVSFEEFQVLVKKISQ: the abundance fitness is -0.231 ± 0.078.
For the variant MSAKKSPEELKGIFEKYAAKEPDPNQLSKEELKLLLQTEFPSLLKGPSTLDELFEELDKNGDGEVSFEEFQVLVKKISQ, the abundance fitness is -0.19 ± 0.075.
Turning to MSAKKSPEELKGIFEKYAAKEMDPNQLSKEELKLLLQTEFPSLLKGPSTLDELFEELDKNGDGEVSFEEFQVLVKKISQ, the abundance fitness is -0.19 ± 0.089.
As to MSAKKSPEELKGIFEKYAAKERDPNQLSKEELKLLLQTEFPSLLKGPSTLDELFEELDKNGDGEVSFEEFQVLVKKISQ, the abundance fitness was -0.013 ± 0.068.
Regarding MSAKKSPEELKGIFEKYAAKEEDPNQLSKEELKLLLQTEFPSLLKGPSTLDELFEELDKNGDGEVSFEEFQVLVKKISQ, the abundance fitness was -0.17 ± 0.094.
MSAKKSPEELKGIFEKYAAKEVDPNQLSKEELKLLLQTEFPSLLKGPSTLDELFEELDKNGDGEVSFEEFQVLVKKISQ: the abundance fitness is -0.29 ± 0.075.
The value for MSAKKSPEELKGIFEKYAAKEIDPNQLSKEELKLLLQTEFPSLLKGPSTLDELFEELDKNGDGEVSFEEFQVLVKKISQ was -0.291 ± 0.096.
For the variant MSAKKSPEELKGIFEKYAAKEHDPNQLSKEELKLLLQTEFPSLLKGPSTLDELFEELDKNGDGEVSFEEFQVLVKKISQ, the abundance fitness is -0.103 ± 0.079.
On to MSAKKSPEELKGIFEKYAAKEFDPNQLSKEELKLLLQTEFPSLLKGPSTLDELFEELDKNGDGEVSFEEFQVLVKKISQ, for which the abundance fitness is -0.431 ± 0.091.
For MSAKKSPEELKGIFEKYAAKEKDPNQLSKEELKLLLQTEFPSLLKGPSTLDELFEELDKNGDGEVSFEEFQVLVKKISQ, the abundance fitness was -0.037 ± 0.084.
Take MSAKKSPEELKGIFEKYAAKENDPNQLSKEELKLLLQTEFPSLLKGPSTLDELFEELDKNGDGEVSFEEFQVLVKKISQ: the abundance fitness is -0.147 ± 0.092.
